Measurements reported in paper doi:10.1101/2025.04.29.650001 (bioRxiv, 2025).
Changes are numbered by the printed parent chain.

B1: Fluoroacetate dehalogenase (FAcD) wild type (enzyme, Rhodopseudomonas palustris, UniProt Q6NAM1 1-302, looked up)
chain: MPDLADLFPGFGSEWINTSSGRIFARVGGDGPPLLLLHGFPQTHVMWHRVAPKLAERFKVIVADLPGYGWSDMPESDEQHTPYTKRAMAKQLIEAMEQLGHVHFALAGHDRGARVSYRLALDSPGRLSKLAVLDILPTYEYWQRMNRAYALKIYHWSFLAQPAPLPENLLGGDPDFYVKAKLASWTRAGDLSAFDPRAVEHYRIAFADPMRRHVMCEDYRAGAYADFEHDKIDVEAGNKIPVPMLALWGASGIAQSAATPLDVWRKWASDVQGAPIESGHFLPEEAPDQTAEALVRFFSAAP
B2: Fluoroacetate dehalogenase (FAcD) Ser157Thr (enzyme, Rhodopseudomonas palustris, UniProt Q6NAM1 1-302, looked up)
chain: B1 chain with S157T
B3: Fluoroacetate dehalogenase (FAcD) Ser157Ala (enzyme, Rhodopseudomonas palustris, UniProt Q6NAM1 1-302, looked up)
chain: B1 chain with S157A

Target: the molecule itself
Test: crystal structure

Protein	binding result
B1	binds
B2	binds
B3	binds
